This note sets out measurements from patent US20160264960A1 (Chugai, published 2016).

Assay [1] addresses T1, human plexin A1 protein sema domain (from glutamic acid at position 28 to serine at position 514) tagged at … (human, UniProt Q9UIW2 28-514).
T1 construct: also called human plexin A1 sema domain
T1 sequence: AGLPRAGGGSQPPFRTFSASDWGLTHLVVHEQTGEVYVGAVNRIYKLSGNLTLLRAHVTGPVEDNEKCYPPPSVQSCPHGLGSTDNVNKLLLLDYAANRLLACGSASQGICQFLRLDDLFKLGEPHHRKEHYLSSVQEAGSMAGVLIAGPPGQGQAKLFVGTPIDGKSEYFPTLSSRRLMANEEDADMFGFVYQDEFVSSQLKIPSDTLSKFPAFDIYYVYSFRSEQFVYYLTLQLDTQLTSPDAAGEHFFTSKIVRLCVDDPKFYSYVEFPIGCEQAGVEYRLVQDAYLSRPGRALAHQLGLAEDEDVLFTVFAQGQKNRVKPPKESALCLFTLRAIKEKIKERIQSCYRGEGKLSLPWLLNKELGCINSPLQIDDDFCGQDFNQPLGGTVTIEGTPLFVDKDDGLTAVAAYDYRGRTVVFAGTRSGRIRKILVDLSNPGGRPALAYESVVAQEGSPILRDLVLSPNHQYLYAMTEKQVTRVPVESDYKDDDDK
Description: SPR, Biacore T200; KD against parent antibody hPANLB2-3_359. On the procedure:
(§1) Each antibody obtained in the paragraph (10-1) was evaluated for its binding activity against the antigen by surface plasmon resonance (SPR) analysis.
(§2) In the SPR analysis, the antibody was analyzed using Biacore T200 (GE Healthcare Japan Corp.). The anti-human plexin A1 antibody was immobilized onto the surface of Sensor Chip CM4 using Recombinant Protein A/G (Thermo Fisher Scientific Inc.) and Amine Coupling Kit (GE Healthcare Japan Corp.). The antigen used was a human plexin A1 protein sema domain (from glutamic acid at position 28 to serine at position 514) tagged at the C terminus of the protein with FLAG tag. The antigen was prepared as follows: an expression vector carrying a cDNA corresponding to the human plexin A1 sema domain was transferred to FreeStyle 293 cells. After culture, the obtained culture solution was passed through an anti-FLAG-M2 antibody-immobilized affinity column. A fraction eluted with the FALG peptide was purified by gel filtration. The obtained antigen was serially diluted with 20 mM ACES, 150 mM NaCl, 0.05% polysorbate 20, and 1.2 mM CaCl₂ (pH 7.4) and added to the sensor chip at a flow rate of 30 μL/min. In this assay system, the dissociation constant (KD) between the human plexin A1 protein and the anti-human plexin A1 antibody was calculated using data analysis software (BIA T200 Evaluation software ver. 2).
Background: In SPR one partner is held on a chip, and binding of the other changes the refractive index at the surface.

Assay [2] concerns the target T1, human plexin A1 protein sema domain …. Description: SPR, Biacore T200; antibody held by Protein A/G on CM4 chip, sema domain as analyte. On the procedure: as §1, §2
Assay [3] has as its target T2, biotinylated human IL-6R (shIL6R-Avitag) (human, UniProt P08887 20-357, biotinylated at the C-terminal AviTag sequence by biotin ligase (BirA)).
T2 construct: It was captured on a StreptaWell plate in the phage ELISA; its preparation is described in (3-3); also called biotinylated hIL-6R
T2 sequence: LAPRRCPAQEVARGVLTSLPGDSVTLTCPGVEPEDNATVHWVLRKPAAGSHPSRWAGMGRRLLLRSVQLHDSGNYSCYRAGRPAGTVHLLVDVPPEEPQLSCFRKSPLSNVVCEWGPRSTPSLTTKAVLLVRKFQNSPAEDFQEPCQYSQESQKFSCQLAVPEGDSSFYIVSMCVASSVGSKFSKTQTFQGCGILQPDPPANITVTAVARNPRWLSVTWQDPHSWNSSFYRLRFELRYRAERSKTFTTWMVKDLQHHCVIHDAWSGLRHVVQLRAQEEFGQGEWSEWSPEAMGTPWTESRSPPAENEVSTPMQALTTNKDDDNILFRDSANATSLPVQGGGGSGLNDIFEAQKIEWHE
Briefly: phage ELISA, plate coated with biotinylated human IL-6R, detection with HRP anti-M13 antibody, absorbance at 450 nm. On the procedure:
The phage ELISA method was carried out to confirm Fab display on the produced phage and to confirm the ability to bind to the antigen. StreptaWell 96-well microtiter plate (F. Hoffmann-La Roche, Ltd.) was coated by the addition of 100 μL of PBS containing Goat anti-Human Kappa Biotin antibody (EY Laboratories, Inc.) or biotinylated human IL-6R. Each well of the plate was washed with 0.1×TBST (0.1×TBS containing 0.1% Tween 20) to remove the antigen. Then, the plate was blocked for 1 hour or longer by the addition of 250 μL of 0.02% skim milk-0.1×TBS (0.1×TBS containing 0.02% skim milk) to the well. […] After washing with 0.1×TBST, an HRP-conjugated anti-M13 antibody (Amersham Pharmacia Biotech) diluted with 0.1×TBST was added to each well, and the plate was incubated for 1 hour. After washing with 0.1×TBST, TMB single solution (Zymed Laboratories Inc.) was added to each well. The color reaction of the solution was further terminated by the addition of sulfuric acid. Then, the absorbance was measured at 450 nm.

Assay [4] addresses T3, soluble human IL-6R (human, UniProt P08887 20-357).
T3 construct: Analyte in the Octet experiments; also called hIL-6R; soluble hIL-6R
T3 sequence: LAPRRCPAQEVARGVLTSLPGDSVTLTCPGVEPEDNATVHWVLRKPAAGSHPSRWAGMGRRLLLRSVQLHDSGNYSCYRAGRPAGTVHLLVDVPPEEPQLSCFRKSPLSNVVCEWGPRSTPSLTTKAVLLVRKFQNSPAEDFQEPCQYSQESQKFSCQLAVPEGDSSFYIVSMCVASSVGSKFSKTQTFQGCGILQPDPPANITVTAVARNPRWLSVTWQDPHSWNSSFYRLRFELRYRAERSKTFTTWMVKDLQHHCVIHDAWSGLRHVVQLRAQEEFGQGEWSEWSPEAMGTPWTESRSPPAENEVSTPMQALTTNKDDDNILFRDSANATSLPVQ
Description: biolayer interferometry (Octet RED384), antibody on Protein G biosensor, soluble human IL-6R in solution, 120 s association and 120 s dissociation [b]. The protocol:
(§3) Each antibody (6RNH-2_02, 6RNH-2_37, 6RNH-3(2)_32, and 6RNH-2_42) obtained in the paragraph (4-1) was evaluated for its binding activity against soluble human IL-6R using Octet RED384 (forteBIO). The binding evaluation was conducted using HBS-EP+ Buffer (GE Healthcare Japan Corp.) as a buffer.
(§4) After binding of the antibody to Protein G Biosensors (forteBIO), soluble human IL-6R was allowed to interact with the antibody on the biosensor through contact therebetween for 120 seconds, and subsequently contacted with the buffer for 120 seconds to measure the antibody-antigen interaction. Then, the biosensor was regenerated through contact with 10 mmol/L glycine-HCl (pH 1.5). The measurement was conducted at 30° C.
Background: BLI is a label-free optical method that tracks binding on a fibre tip over time.

In assay [5] the target is T3, soluble human IL-6R. Description: biolayer interferometry (Octet RED384), antibody on Protein G biosensor, soluble human IL-6R in solution, 120 s association and 120 s dissociation [a]. On the procedure:
as §3, §4

Assay [6] deals with T3, soluble human IL-6R. Description: biolayer interferometry (Octet RED384), antibody on Protein G biosensor, soluble human IL-6R in solution, 120 s association and 120 s dissociation [c]. The protocol:
as §3, §4

In assay [7] the target is T4, soluble human plexin A1 (human, UniProt Q9UIW2 27-1244).
T4 construct: also called hPlexin A1; human Plexin A1 extracellular region
Briefly: biolayer interferometry (Octet RED384), antibody on Protein G biosensor, soluble human plexin A1 in solution; antigen concentration not given [a]. The protocol:
(§5) The binding evaluation was conducted using HBS-EP+Buffer (GE Healthcare Japan Corp.) as a buffer.
(§6) After binding of the antibody to Protein G Biosensors (forteBIO), soluble human IL-6R or soluble human plexin A1 was allowed to interact with the antibody on the biosensor through contact therebetween for 120 seconds, and subsequently contacted with the buffer for 120 seconds to measure the antibody-antigen interaction. Then, the biosensor was regenerated through contact with 10 mmol/L glycine-HCl (pH 1.5). The measurement was conducted at 30° C.

For assay [8], the target named is T3, soluble human IL-6R. Description: biolayer interferometry (Octet RED384), antibody on Protein G biosensor, soluble human IL-6R in solution, 120 s association and 120 s dissociation [a]. The protocol: as §5, §6
This is another data set of the same source.

T4 sequence (Q9UIW2 other isoform, or with tags, fused parts or gaps): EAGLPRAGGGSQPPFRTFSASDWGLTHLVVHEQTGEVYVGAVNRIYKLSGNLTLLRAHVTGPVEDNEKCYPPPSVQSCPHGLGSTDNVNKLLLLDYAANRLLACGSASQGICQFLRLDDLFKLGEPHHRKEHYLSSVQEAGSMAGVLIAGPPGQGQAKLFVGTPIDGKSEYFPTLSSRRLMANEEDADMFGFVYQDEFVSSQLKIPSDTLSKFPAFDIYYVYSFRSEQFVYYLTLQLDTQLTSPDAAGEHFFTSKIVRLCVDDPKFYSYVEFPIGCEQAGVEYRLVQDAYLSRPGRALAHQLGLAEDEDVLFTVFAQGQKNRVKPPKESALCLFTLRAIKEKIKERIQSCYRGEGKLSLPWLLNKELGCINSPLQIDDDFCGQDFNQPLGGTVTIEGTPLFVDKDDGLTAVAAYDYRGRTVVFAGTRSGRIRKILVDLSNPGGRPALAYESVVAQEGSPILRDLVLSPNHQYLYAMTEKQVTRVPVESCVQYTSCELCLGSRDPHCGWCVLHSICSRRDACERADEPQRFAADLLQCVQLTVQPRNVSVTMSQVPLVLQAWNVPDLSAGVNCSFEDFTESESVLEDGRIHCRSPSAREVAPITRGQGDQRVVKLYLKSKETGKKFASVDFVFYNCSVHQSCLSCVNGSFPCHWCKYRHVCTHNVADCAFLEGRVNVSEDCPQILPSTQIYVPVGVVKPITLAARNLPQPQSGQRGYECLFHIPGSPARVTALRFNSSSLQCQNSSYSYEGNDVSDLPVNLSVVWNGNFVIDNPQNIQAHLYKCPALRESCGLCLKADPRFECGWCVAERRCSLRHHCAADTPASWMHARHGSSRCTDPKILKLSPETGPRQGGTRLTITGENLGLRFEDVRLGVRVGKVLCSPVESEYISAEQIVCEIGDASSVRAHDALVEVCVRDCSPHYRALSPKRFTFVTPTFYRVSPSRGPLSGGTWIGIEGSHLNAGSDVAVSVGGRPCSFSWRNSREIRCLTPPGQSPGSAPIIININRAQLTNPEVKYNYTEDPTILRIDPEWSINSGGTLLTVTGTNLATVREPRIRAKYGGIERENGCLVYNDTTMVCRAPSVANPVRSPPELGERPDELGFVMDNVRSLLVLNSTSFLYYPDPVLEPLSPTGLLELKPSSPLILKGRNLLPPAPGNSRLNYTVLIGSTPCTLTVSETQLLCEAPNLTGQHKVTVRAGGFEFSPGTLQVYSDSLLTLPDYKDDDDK

B1: PLR2H359#087 (antibody, human IgG1, lambda, V domains shown)
VH: QVQLVQSGAEVKKPGASVKVSCKASGYTFTSYYMHWVRQAPGQGLEWMGIINPSGGSTSYAQKFQGRVTMTRDTSTSTVYMELSSLRSEDTAVYYCARAPGHYYYGMDVWGQGTTVTVSS
VL: SSELTQPPSMSVSPGQTASISCSGDRLGEKYASWYQQKPGQSPVLVIYQDNKRPSGIPERFSGSNSGNTATLTISGTQAIDEADYYCQAWDSNSAYVFGTGTKVTVLG
notes: IgG from the 359H-NL library
By Kd is commonly meant the free concentration of one partner at which half of the binding sites on the other are occupied at equilibrium, for simple one-to-one binding. Higher therefore signals lower affinity. On to B1, for which the “Relative KD improvement” value in assay [1] turned out to be 2.9 fold. This molecule also gave a Kd in assay [2] of 4.62 nM.

B2: PLR2H359#062 (antibody, human IgG1, lambda, V domains shown)
VH: QVQLVQSGAEVKKPGASVKVSCKASGYTFTSYYMHWVRQAPGQGLEWMGIINPSGGSTSYAQKFQGRVTMTRDTSTSTVYMELSSLRSEDTAVYYCARAPGHYYYGMDVWGQGTTVTVSS
VL: SYELTQPPSLSVSPGQTASITCSGDKLGEKYACWYQQKPGQSPALVIYQDTKRPSGIPERFSGSNSGNTATLTISGTQAMDEADYSCQAWDTNTGEVVFGGGTKLTVLG
notes: IgG from the 359H-NL library
Regarding B2, the “Relative KD improvement” value in assay [1] was 3.4 fold. The molecule further registered a Kd in assay [2] of 3.93 nM.

B3: PF1 Fab displayed on phage (PF1 H chain Fd-g3p fusion with PF1 L chain) (Fab, V domains shown)
VH: QVQLQESGPGLVKPSETLSLTCAVSGYSISDDHAWSWVRQPPGEGLEWIGYISYSGITNYNPSLKGRVTISRDTSKNQFSLKLSSVTAADTAAYYCARVLARITAMDYWGEGTLVTVSS
VL: DIQMTQSPSSLSASVGDSVTITCQASQDISSYLNWYQQKPGKAPELLIYYGSELHSGVPSRFSGSGSGTDFTFTISSLEAEDAATYYCGQGNRLPYTFGQGTKVEIER
notes: also called Fab-displaying phage; phage produced with M13KO7TC-PF1L; not shown: linker peptide and gene 3 protein (g3p) fused to the C terminus of the Fd
With B3, the binding result in assay [3] is given as “binds”.

B4: 6RNH-2_37 (antibody, human IgG1, kappa, V domains shown)
VH: QVQLQESGPGLVRPSQTLSLTCTVSGYSITSDHAWSWVRQPPGRGLEWIGYISYSGITTYNPSLKSRVTMLRDTSKNQFSLRLSSVTAADTAVYYCARSLARTTAMDYWGQGTLVTVSS
VL: DIQMTQSPSSLSASVGDSVTITCQASQDISSYLNWYQQKPGKAPELLIYYGSELHSGVPSRFSGSGSGTDFTFTISSLEAEDAATYYCGQGNRLPYTFGQGTKVEIER
notes: IgG with the PF1 L chain
As for B4, in assay [4], the binding result is reported as “binds”.

B5: 6RNH-2_02 (antibody, human IgG1, kappa, V domains shown)
VH: QVQLVETGGGMVQPGGSLRLSCAASGFMFSTYAMSWVRQASGKGLEWVSLISGTGSVTKYADSVKGRFTISRDNSKNMVYLQMNNLGADDTAVYYCANSDYGDYARFDHWGQGTLVTVSS
VL: DIQMTQSPSSLSASVGDSVTITCQASQDISSYLNWYQQKPGKAPELLIYYGSELHSGVPSRFSGSGSGTDFTFTISSLEAEDAATYYCGQGNRLPYTFGQGTKVEIER
notes: IgG with the PF1 L chain, purified on Protein A
Regarding B5, the binding result in assay [5] is “binds”.

B6: 6RNH-3(2)_32 (antibody, human IgG1, kappa, V domains shown)
VH: QVQLQESGPGLVKPSETLSLTCAVSGYSISHDHAWSWVRQPPGEGLEWIGHISYSGITNYNPHLQDRVTISRDTSKNQFSLKLSSVTAADTAVYYCARFLARITAHDHWGEGTLVTVSS
VL: DIQMTQSPSSLSASVGDSVTITCQASQDISSYLNWYQQKPGKAPELLIYYGSELHSGVPSRFSGSGSGTDFTFTISSLEAEDAATYYCGQGNRLPYTFGQGTKVEIER
notes: IgG with the PF1 L chain
Turning to B6, the binding result in assay [6] is reported as “binds”.

B7: phage produced by the H chain (PF1H)-expressing phagemid vector and the negative control helper phage M13KO7TC (other)
heavy: QVQLQESGPGLVKPSETLSLTCAVSGYSISDDHAWSWVRQPPGEGLEWIGYISYSGITNYNPSLKGRVTISRDTSKNQFSLKLSSVTAADTAAYYCARVLARITAMDYWGEGTLVTVSSASTKGPSVFPLAPSSKSTSGGTAALGCLVKDYFPEPVTVSWNSGALTSGVHTFPAVLQSSGLYSLSSVVTVPSSSLGTQTYICNVNHKPSNTKVDKK
notes: Control phage without an L chain; not shown: linker peptide and gene 3 protein (g3p)
For B7, in assay [3], the binding result was “no binding”.

B8: 6RPAB3_03 (antibody, human IgG1, kappa, V domains shown)
VH: EVQLVESGGGLVQPGGSLRLSCATSGFTFSSYEMNWVRQAPGKGLEWVSYIDRSGSTIYYADSVKGRFTISRDNAKNSLYLQMNSLRAEDTAVYYCAGEWWQGDSWGQGTTVTVSS
VL: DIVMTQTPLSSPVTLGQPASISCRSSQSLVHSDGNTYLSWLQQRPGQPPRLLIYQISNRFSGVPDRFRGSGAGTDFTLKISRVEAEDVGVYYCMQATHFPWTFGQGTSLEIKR
As for B8, the binding result is on record as “no binding” in assay [7] and “binds” in assay [8].
